Like-named read-outs stand apart in the source and are kept apart here.
B1: 40769p2.1.E1 IgG (antibody, V domains shown)
VH: EVQLLESGGGLIQPGGSLRLSCTASGFDFSSYGMHWVRQAPGKGLEWVAIISDSGGTTYYGDSVKGRFTISRDNSKSTLYLQMNSLRAEDTALYYCASYIMDVWGQGTTVTVSS
VL: QSVLTQPPSASGTPEQRVTISCSGSNSNVGDNAVYWYQQLPGTAPKLLFYGTNRRPSGVPDRFSGSKSGTSASLAISGLQSEDEADYYCAAWDDSLNAWVFGGGTKLTVL
notes: IgG
B2: 40769p2.2.A5 IgG (antibody, V domains shown)
VH: EVQLLESGGGLIQPGGSLRLSCTASGFDFSSYGMHWVRQAPGKGLEWVGIISDTGGTTYYGDSVKGRFTISRDNSKSTLYLQMNSLRAEDTALYYCASYIMDVWGQGTTVTVSS
VL: QSVLTQPPSASGTPGQRVTISCSGSNSNVGDNAVYWYQQLPGTAPKLLFYGTNRRPSGVPDRFSGSKSGTSASLAISGLQSEDEADYYCAAWDDSLNAWVFGGGTKLTVL
notes: IgG
B3: 40769p2.1.G4 IgG (antibody, V domains shown)
VH: EVQLLESGGGLVQPGGSLRLSCAASGFTFTSHDMNWVRQAPGKGLEWVSTITTGGNTYYADSVKGRFTISRDNSKNTLYLQMTSLRAEDTAVYYCTKHYSMDVWGQGTTVTVSS
VL: QSVLTQPPSASGTPGQRVTISCSGSTSNVVFNAVYWYQQLPGTAPKLLFYGKSQRPSGVPDRFSGSKSGTSASLAISGLQSEDEADYYCAAWDDTLNGWVFGGGTKLTVL
notes: IgG
B4: 40769p2.1.H12 IgG (antibody, V domains shown)
VH: EVQLLESGGGLIQPGGSLRLSCTASGFDFSSYGMHWVRQAPGKGLEWVGIISDSGGTTYYADSVKGRFTISRDNSKNTLYLQMNSLRAEDTALYYCASYIMDVWGQGITVTVSS
VL: QSVLTQPPSASGTPGQRVTISCSGSNSNVGVNSVYWYQQLPGTAPKLLIYGSGRRPSGVPDRFSVSKSGTSASLAISGLQSEDEADYYCAAWDDGLNAWVFGGGTKLTVL
notes: IgG
B5: 40769p2.2.E12 scFv-Fc (scFv, V domains shown)
VH: EVQLLESGGGLIQPGGSLRLSCTASGFDFSSYGMHWVRQAPGKGLEWVGIISDTGGTTYYGDSVKGRFTISRDNSKSTLYLQMNSLRAEDTALYYCASYIMDVWGQGTTVTVSS
VL: QSVLTQPPSASGTPGQRVTISCSGSNSNVGDNAVYWYQQPPGTAPKLLFYGTNRRPSGVPDRFSGSKSGTSASLAISGLQSEDEADYYCAAWDDSLNAWVFGGGTKLTVL
notes: scFv-Fc
B6: 40769p2.2.A6 scFv-Fc (scFv, V domains shown)
VH: EVQLLESGGGLVQPGGSLRLSCAASGFTFSDYEMNWVRQAPGKGLEWVSAISITGSWTYYADSVKGRFTISRDNSENTLYLQMNNLRAEDTAVYYCANYKSYYGMDVWGRGTTVTVSS
VL: QSVLTQPPSASGTPGQRVTISCSGSRSNIRNNLVNWYQQLPGTAPKLLIYNTQRPSGVPDRFSGSKSGTSASLAISGLQSEDEADYYCASWDASLNAWVFGGGTKLTVL
notes: scFv-Fc
B7: 40769p2.2.C11 scFv-Fc (scFv, V domains shown)
VH: EVQLLESGGGLVQPGGSLRLSCAASGFTFSDYEMNWVRQAPGKGLEWVSSISITGSWTYYADSVKGRFTISRDNSKNTLYLQMNNLRAEDTAVYYCANYKSYYGMDVWGHGTTVTVSS
VL: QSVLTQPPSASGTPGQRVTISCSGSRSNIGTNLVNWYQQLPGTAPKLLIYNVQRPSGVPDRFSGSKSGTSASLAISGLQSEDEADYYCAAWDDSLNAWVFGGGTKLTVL
notes: scFv-Fc
B8: 40769p2.2.C8 (antibody, V domains shown)
VH: EVQLLESGGGLVPPGGSLRLSCAASGFTFTNAWMSWVRQAPGKGLEWVSTIRSKTDGGTPYSADSVKGRFTISRDDSKNTLYLQMNSLRAEDTAVYYCAKYDYNYMDVWGQGTTVTVSS
VL: QSVLTQPPSASGTPGQRVTISCSGTTSNIGRNYVHWYQQFPGTAPKLLIYRNSQRPSGVPDRFSGSKSGTSASLAISGLQSEDEADYYCAAWDDSLNGWLFGGGTKLTVL
notes: Human V regions from transgenic chicken, cloned as scFv-Fc; The variable domains can be found in the listing by the CDRs
B9: 40769p2.1.F2 (antibody, V domains shown)
VH: EVQLLESGGGLVQPGGSLRLSCVASGFTFTNYEMNWVRQAPGKGLEWVSSISITGNYIYYADSVKGRFTISRDNSKNTLYLQMNDLRAEDTAVYYCANYKSYHGMDVWGQGTTVTVSS
VL: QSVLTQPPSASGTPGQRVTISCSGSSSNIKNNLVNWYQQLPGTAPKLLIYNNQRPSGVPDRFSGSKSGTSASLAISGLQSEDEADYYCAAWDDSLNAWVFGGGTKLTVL
notes: as for B8
B10: 40769p2.2.E7 (antibody, V domains shown)
VH: EVQLLESGGGLVQPGGSLRLSCTGFGFTFTDARMSWVRQAPGKGLEWVADISSYGDNTYYADSVKGRFTISRDNSANTLYVQMNSLRAEDTAVYYCAKRMEREVMTIKLDYHAMDVWGQGTTVTVSS
VL: QSVLTQTPSVSGTPGQRVTISCSGIFNIRNYVSWYQQLPGTAPKLLIFKDDQRLSGVPDRFSGSGSGTSASLAISGLQSEDEADYYCAAWDIFLNVWVFGGGTKLTVL
notes: as for B8
B11: 40769p2.2.A8 (antibody, V domains shown)
VH: EVQLLESGGGLVQPGGSLRLSCAASGFTFSDYWMNWVRQAPGKGLEWVSTISISGGIIYYADSVKGRFTISRDNSKNTLYLQMNSLRAEDTAVYYCAKDNWNDYYGMDVWGQGTTVTVSS
VL: QSVLTQPPSASGTPGQRVTISCSGSTSNIRDNYVYWYQQVPGTAPKLLIYKDDQRPSGVPDRFSGSKSGTSASLAISGLQSDDEADYYCATWDGSLNGRVFGGGTKLTVL
notes: as for B8
B12: 40769p2.2.D9 scFv-Fc (scFv, V domains shown)
VH: EVQLLESGGGLVQPGGSLRLSCAGSGFTFSDYWMSWVRQAPGKGLEWVSTISITAGIIYYADSVKGRFTISRDNSKNTLYLQMNSLRAEDTAVYYCAKDNWNDYYGMDVWGQGTTVTVSS
VL: QSVLTQPPSASGTPGQRVTVSCSGSRSNIRDNYVYWYQQVPGTAPKLLIYKDDQRPSGVPDRFSGSKSGTSASLVISGLQSEDEADYYCATWDGSLNARVFGGGTKLTVL
notes: scFv-Fc
B13: 40596p2.1.A2 IgG (antibody, V domains shown)
VH: EVQLLESGGGLVQPGGSLTLSCTASGLTFSSYAMNWVRQAPGKGLEWVATISSNSGSFRSYADSVKGRFTISRDNSKSTLYLQTNSLRAEDTALYYCTKDRSITANDFTMDVWGQGTTVTVSS
VL: EIVLTQSPGTLSVSPGERATLNCRASQTVGSRLAWYQQKPGQAPRLLIYGASSRATGIPARFSGSGSGTEFTLTISSLQSEDFAVYYCQQYYDWPPLTFGGGTKVEIK
notes: IgG

Tests used:
[1] = molecular target: T1, His-tagged human CD38 (ACRO Biosystems CD8-H5224) (human, UniProt P28907 43-300); assay: SPR, IgG
T1 construct: bought protein; used for ELISA coating and as SPR analyte; not shown: His tag

[2] = molecular target: T2, His-tagged cynomolgus monkey CD38 (ACRO Biosystems, CD8-05223 [sic]) (cynomolgus monkey, UniProt Q5VAN0 43-301); assay: SPR, IgG
T2 construct: bought protein; used for ELISA coating and as SPR analyte; not shown: His tag

[3] = molecular target: T3, His-tagged mouse CD38 (ACRO Biosystems CD8-M5223) (mouse, UniProt P56528 45-304); assay: SPR, IgG
T3 construct: bought protein; used for ELISA coating and as SPR analyte; also called Murine; not shown: His tag
T3 sequence (looked up): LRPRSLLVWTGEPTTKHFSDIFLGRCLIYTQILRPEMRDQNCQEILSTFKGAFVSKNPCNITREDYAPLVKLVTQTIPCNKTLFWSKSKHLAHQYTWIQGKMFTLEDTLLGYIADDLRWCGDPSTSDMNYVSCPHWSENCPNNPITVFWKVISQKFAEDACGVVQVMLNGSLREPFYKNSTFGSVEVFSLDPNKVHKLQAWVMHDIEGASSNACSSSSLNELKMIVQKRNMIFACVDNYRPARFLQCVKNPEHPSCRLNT

[4] = molecular target: T1, His-tagged human CD38 (ACRO Biosystems …); assay: ELISA, 1 ug/ml scFv-Fc, coated His-tagged CD38
[5] = molecular target: T2, His-tagged cynomolgus monkey CD38 (ACRO …); assay: ELISA, 1 ug/ml scFv-Fc, coated His-tagged CD38
[6] = molecular target: T3, His-tagged mouse CD38 (ACRO Biosystems …); assay: ELISA, 1 ug/ml scFv-Fc, coated His-tagged CD38
[7] = molecular target: T4, Human CD38 on transiently transfected Expi293 cells (Origene SC321273) (human, UniProt P28907 1-300); assay: flow cytometry, 10 ug/ml scFv-Fc, transfected Expi293 cells
T4 construct: whole, on cells

[8] = molecular target: T5, Murine CD38 on transiently transfected Expi293 cells (Origene MC208001) (murine, UniProt P56528 1-304); assay: as above
T5 construct: whole, on cells
T5 sequence (looked up): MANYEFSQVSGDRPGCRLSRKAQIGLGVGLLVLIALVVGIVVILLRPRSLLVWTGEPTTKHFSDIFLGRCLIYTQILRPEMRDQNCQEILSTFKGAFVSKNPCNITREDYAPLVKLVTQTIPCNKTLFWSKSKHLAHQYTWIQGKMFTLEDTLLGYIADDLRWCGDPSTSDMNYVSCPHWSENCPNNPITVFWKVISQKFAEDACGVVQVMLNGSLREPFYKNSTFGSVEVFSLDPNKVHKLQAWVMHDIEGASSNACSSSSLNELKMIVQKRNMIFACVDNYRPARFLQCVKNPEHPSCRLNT

[9] = molecular target: T6, CD38 on Daudi target cells (UniProt P28907 1-300, limits assumed); assay: cell-based or functional assay
[10] = molecular target: T6, CD38 on Daudi target cells; assay: cell-based or functional assay; remark: listed apart in the source
[11] = molecular target: T7, His-tagged human CD38 (ACRO Biosystems cat #CD8-H5224) (human, UniProt P28907 43-300); assay: SPR (Carterra LSA), antibody captured by anti-human Fc, His-tagged CD38 injected; IgG by the head of Table 5
T7 construct: Bought His-tagged protein

[12] = molecular target: T8, His-tagged cynomolgus monkey CD38 (ACRO Biosystems cat # CD8-05223 [sic]) (cynomolgus monkey, UniProt Q5VAN0 43-301); assay: as above
T8 construct: Bought His-tagged protein; also called cynomolgus CD38

Binder | Kd [1] [nM] | Kd [2] [nM] | Kd [3] [nM] | ELISA signal [4] | ELISA signal [5] | ELISA signal [6] | FACS percent gated [7] [%] | FACS percent gated [8] [%] | Lowest Remaining Target % [9] [%] | Max RLU [9] [RLU] | PBMC ADCC EC50 [9] [ng/mL] | Reporter cell ADCC EC50 [9] [ng/mL] | ADCC EC50 [10] [ng/mL] | Lowest Remaining Target % [10] [%] | Max RLU [10] [RLU] | PBMC ADCC EC50 [10] [ng/mL] | Kd [11] [nM] | Kd [12] [nM]
B1 | 25.6 | 261 | 1170 | – | – | – | – | – | – | – | – | – | – | – | – | – | – | –
B2 | 18.8 | 221 | 1160 | – | – | – | – | – | – | – | – | – | – | – | – | – | – | –
B3 | 35.5 | 73.8 | 106 | – | – | – | – | – | – | – | – | – | – | – | – | – | – | –
B4 | 160 | 316 | 21400 | – | – | – | – | – | – | – | – | – | – | – | – | – | – | –
B5 | – | – | – | 1.67 | 1.59 | 1.26 | 91.6 | 35.9 | – | – | – | – | – | – | – | – | – | –
B6 | – | – | – | 1.75 | 1.62 | 0.043 | 92.2 | 2.43 | – | – | – | – | – | – | – | – | – | –
B7 | – | – | – | 1.53 | 1.52 | 0.043 | 92.8 | 1.26 | – | – | – | – | – | – | – | – | – | –
B8 | – | – | – | – | – | – | – | – | 58 | 2.18e+06 | 0.167 | ~9.74 | ~9.74 | 58 | 2.18e+06 | 0.167 | 1.17 | 3.64
B9 | – | – | – | – | – | – | – | – | 57 | 1.72e+06 | 0.293 | 25.3 | 25.3 | 57 | 1.72e+06 | 0.293 | 3.3 | 7.05
B10 | – | – | – | – | – | – | – | – | 63 | 1.33e+06 | 0.0245 | ~13.2 | ~13.2 | 63 | 1.33e+06 | 0.0245 | 0.47 | 1.99
B11 | – | – | – | – | – | – | – | – | 56 | 1.85e+06 | 0.273 | 9.82 | 9.82 | 56 | 1.85e+06 | 0.273 | 2.58 | 3.27
B12 | – | – | – | 1.51 | 1.47 | 0.043 | 92.6 | 2.87 | – | – | – | – | – | – | – | – | – | –
B13 | 10.9 | – | 6.71 | – | – | – | – | – | – | – | – | – | – | – | – | – | – | –

— patent US20220306762A1 (CRYSTAL BIOSCIENCE, published 2022)
